Results from the supplement of paper PMC10201428.
± gives the standard deviation of the averaged measurements.

Assays:
[1] = tested on: VchCAST RNA-guided transposition machinery (E. coli BL21(DE3) host, lacZ target); experiment: relative integration efficiency (T-LR orientation) vs wild-type transposon end (log2 (normalized fold change)); transposon end mutated: right end (5 bp flank + 75 bp right end); higher = more efficient transposition
Outline: (§1)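 A T7-driven effector plasmid encoding a CRISPR array, tniQ-cas8-cas7-cas6 and tnsA-tnsB-tnsC was co-transformed into E. coli BL21(DE3) together with a pUC57 mini-transposon donor holding barcoded pools of 1549 left-end or 1849 right-end variants. Transformants were plated with 0.1 mM IPTG at 37°C for 18 h. Illumina sequencing of PCR-amplified input plasmids and genomic integration junctions gave barcode abundances, and relative integration efficiency is their output/input fold change, normalised to reference barcodes and log-transformed.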

[2] = tested on: VchCAST RNA-guided transposition machinery (E. coli BL21(DE3) host, lacZ target); experiment: relative integration efficiency (T-RL orientation) vs wild-type transposon end (log2 (normalized fold change)); transposon end mutated: right end (5 bp flank + 75 bp right end); higher = more efficient transposition
Outline: as §1

| Sequence | relative integration efficiency (log2) [1] | relative integration efficiency (log2) [2] |
| --- | --- | --- |
| ACATTTGTACTAACAACCATAAAATGATAATTACACCCATAAATTGATAATTATCACACCCATAAATTGATATTGCCTCTGATCATAGTCAGACCAACATTGCTACGACCCGTATTCGCACCGACAC | -4.23 ± 0.45 | -1.43 ± 0.32 |
| ACATTTGTAGAAAAAACCATACGTTGATTTTACGAAACCATACGCTGAAATAATCACACCCATAAATTGATATTGCCTCTGATCATAGTCAGACCAACATTGCTACGACCCGTATTCGCACCGACAC | -5.68 ± 1.4 | -6.62 ± 0.1 |
| ACATTTGTAGATAAAACCATACGTTGATTTTACGAAACCATACGCTGAAATAATCACACCCATAAATTGATATTGCCTCTGATCATAGTCAGACCAACATTGCTACGACCCGTATTCGCACCGACAC | -5.26 ± 0.89 | -6.57 ± 0.4 |
| ACATTTGTCAACCATAAAATGATAATTACACCCATAAATTGATAATTATCACACCCATAAATTGATATTGCCTCTGATCATAGTCAGACCAACATTGCTACGACCCGTATTCGCACCGACACTGACT | -4.8 ± 0.66 | -6.76 ± 0.31 |
| ACATTTGTCGATACAACCATAAAACGATAATTACACCCATAAATGGATAATTATCACACCCAATTTAACTATAACGCTCTGATCATAGTCAGACCAACATTGCTACGACCCGTATTCGCACCGACAC | 1.85 ± 0.05 | -1.19 ± 0.15 |
| ACATTTGTCGATACAACCATAAAACGATAATTACACCCATAAATGGATCATTATCACACCCAATTTAACTATAACGCTCTGATCATAGTCAGACCAACATTGCTACGACCCGTATTCGCACCGACAC | 0.741 ± 0.05 | -1.91 ± 0.19 |
| ACATTTGTCGATACAACCATAAAACGATAATTACACCCATAAATTCATAATTATCACACCCAATTTAACTATAACGCTCTGATCATAGTCAGACCAACATTGCTACGACCCGTATTCGCACCGACAC | 1.06 ± 0.15 | -2.45 ± 0.33 |
| ACATTTGTCGATACAACCATAAAACGATAATTACACCCATAAATTCATCATTATCACACCCAATTTAACTATAACGCTCTGATCATAGTCAGACCAACATTGCTACGACCCGTATTCGCACCGACAC | 1.48 ± 0.17 | -2.2 ± 0.19 |
| ACATTTGTCGATACAACCATAAAACGATAATTACACCCATAAATTGATAATTATCACACCCAATTTAACTATAACGCTCTGATCATAGTCAGACCAACATTGCTACGACCCGTATTCGCACCGACAC | 2.07 ± 0.094 | -1.38 ± 0.25 |
| ACATTTGTCGATACAACCATAAAACGATAATTACACCCATAAATTGATCATTATCACACCCAATTTAACTATAACGCTCTGATCATAGTCAGACCAACATTGCTACGACCCGTATTCGCACCGACAC | 1.9 ± 0.036 | -1.88 ± 0.3 |
| ACATTTGTCGATACAACCATAAAATGATAATTACACCCATAAATGGATAATTATCACACCCAATTTAACTATAACGCTCTGATCATAGTCAGACCAACATTGCTACGACCCGTATTCGCACCGACAC | 1.69 ± 0.097 | -1.05 ± 0.18 |
| ACATTTGTCGATACAACCATAAAATGATAATTACACCCATAAATGGATAATTATCACCCCCAATTTAACTATAACGCTCTGATCATAGTCAGACCAACATTGCTACGACCCGTATTCGCACCGACAC | 1.38 ± 0.025 | -1.38 ± 0.18 |
| ACATTTGTCGATACAACCATAAAATGATAATTACACCCATAAATGGATCATTATCACACCCAATTTAACTATAACGCTCTGATCATAGTCAGACCAACATTGCTACGACCCGTATTCGCACCGACAC | 0.97 ± 0.063 | -1.61 ± 0.16 |
| ACATTTGTCGATACAACCATAAAATGATAATTACACCCATAAATGGATCATTATCACCCCCAATTTAACTATAACGCTCTGATCATAGTCAGACCAACATTGCTACGACCCGTATTCGCACCGACAC | 1.19 ± 0.086 | -1.61 ± 0.32 |
| ACATTTGTCGATACAACCATAAAATGATAATTACACCCATAAATTCATAATTATCACACCCAATTTAACTATAACGCTCTGATCATAGTCAGACCAACATTGCTACGACCCGTATTCGCACCGACAC | 1.2 ± 0.05 | -1.92 ± 0.14 |
